Source: article PMC2990800 (Molecular and cellular endocrinology, 2010)

Target: the molecule itself
Test: FRET or BRET + split reporter

B1: Adenosine A2A receptor (receptor, UniProt P29274 1-412, looked up)
chain: MPIMGSSVYITVELAIAVLAILGNVLVCWAVWLNSNLQNVTNYFVVSLAAADIAVGVLAIPFAITISTGFCAACHGCLFIACFVLVLTQSSIFSLLAIAIDRYIAIRIPLRYNGLVTGTRAKGIIAICWVLSFAIGLTPMLGWNNCGQPKEGKNHSQGCGEGQVACLFEDVVPMNYMVYFNFFACVLVPLLLMLGVYLRIFLAARRQLKQMESQPLPGERARSTLQKEVHAAKSLAIIVGLFALCWLPLHIINCFTFFCPDCSHAPLWLMYLAIVLSHTNSVVNPFIYAYRIREFRQTFRKIIRSHVLRQQEPFKAAGTSARVLAAHGSDGEQVSLRLNGHPPGVWANGSAPHPERRPNGYALGLVSGGSAQESQGNTGLPDVELLSHELKGVCPEPPGLDDPLAQDGAGVS
stoichiometry N: ≥ 3
